Measurements reported in the supplement of paper PMC7877785.
± gives the uncertainty stated by the source.

Assay: self-splicing fitness, log relative to wild type (ln ratio); higher = more splicing; Tetrahymena group I intron in knt gene, E. coli kanamycin selection, DiMSum; sequences stand for … in CUCUCU…GGAGGGAAAAGUUAUCAGGCAUGCACCUGGUAGCUAGUCUUUAAACCAAUAGAUUGCAUCGGUUUAAAAGGCAAGACCGUCAAAUUGCGGGAAAGGGGUCAACAGCCGUUCAGUACCAAGUCUCAGGGGAAACUUUGAGAUGGCCUUGCAAAGGGUAUGGUAAUAAGCUGACGGACAUGGUCCUAACCACGCAGCCAAGUCCUAAGUCAACAGAUCUUCUGUUGAUAUGGAUGCAGUUCACAGACUAAAUGUCGGUCGGGGAAGAUGUAUUCUUCUCAUAAGAUAUAGUCGGACCUCUCCUUAAUGGGAGCUAGCGGAUGAAGUGAUGCAACACUGGAGCCGCUGGGAACUAAUUUGUAUGCGAAAGUAUAUUGAUUAGUUUUGGAGUACUCGUGGUCG
Method in brief: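 Fitness was computed with DiMSum as the error-weighted combination of replicate fold changes, kanamycin versus none, each normalised to wild type. The library randomised all eight intron nucleotides of the P1ex region, with the intron placed in the knt kanamycin-resistance gene on pET-22b(+) in E. coli BL21(DE3). Six replicate transformations were grown overnight at 37°C or 30°C on LB agar with or without 25 μg/mL kanamycin, plus 100 μg/mL carbenicillin, 50 μM IPTG and 0.2% rhamnose. Pooled colonies were amplicon-sequenced on an Illumina HiSeq 2500.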

| Sequence | self-splicing fitness (ln) (30 °C) | self-splicing fitness (ln) (37 °C) |
| --- | --- | --- |
| CGGGAGCAAUAUUACGCCAC | -3.63 ± 0.29 | -2.63 ± 0.41 |
| UCUAAGCAAUAUUACGGGUC | -2.67 ± 0.26 | -1.16 ± 0.37 |
| CUAAAGCAAUAUUACGAUGG | -0.196 ± 0.058 | 0.0185 ± 0.091 |
| AGGUAGCAAUAUUACGAGAU | -3.178 ± 0.023 | -1.91 ± 0.036 |
| GAACAGCAAUAUUACGUGGG | -3.42 ± 0.11 | -1.9 ± 0.091 |
| UUUUAGCAAUAUUACGAGCA | -1.72 ± 0.15 | -0.97 ± 0.16 |
| GGAAAGCAAUAUUACGGCUG | -0.471 ± 0.12 | -0.348 ± 0.17 |
| GAACAGCAAUAUUACGUGCG | -0.551 ± 0.065 | -0.41 ± 0.074 |
| UCUCAGCAAUAUUACGCCGU | -2.55 ± 0.25 | -1.56 ± 0.22 |
| UCCAAGCAAUAUUACGCCAC | – | -1.13 ± 0.33 |
| UAAAAGCAAUAUUACGUGCG | -0.348 ± 0.07 | -0.119 ± 0.09 |
| CAUUAGCAAUAUUACGCUCU | -2.64 ± 0.2 | -1.43 ± 0.22 |
| GUGCAGCAAUAUUACGAAGU | -1.74 ± 0.14 | -0.554 ± 0.17 |
| UGCUAGCAAUAUUACGUGGA | -3 ± 0.19 | -2.44 ± 0.15 |
| UCACAGCAAUAUUACGCCUC | -2.06 ± 0.35 | – |
| CACUAGCAAUAUUACGCACU | -1.54 ± 0.11 | -0.108 ± 0.11 |
| CAACAGCAAUAUUACGAUUU | -0.837 ± 0.067 | -0.69 ± 0.083 |
| AUAUAGCAAUAUUACGGGCU | -2.22 ± 0.17 | -1.6 ± 0.21 |
| AUUGAGCAAUAUUACGUGAA | -2.5 ± 0.15 | -1.74 ± 0.27 |
| AGGGAGCAAUAUUACGGGGA | -3.29 ± 0.34 | -2.64 ± 0.48 |
| UAUAAGCAAUAUUACGUCCG | -0.775 ± 0.11 | -0.223 ± 0.15 |
| GAAUAGCAAUAUUACGCUUG | -0.781 ± 0.11 | -0.818 ± 0.14 |
| GUCCAGCAAUAUUACGACUA | -1.52 ± 0.11 | -0.869 ± 0.11 |
| UGAUAGCAAUAUUACGAGAC | – | -2.59 ± 0.34 |
| CUAGAGCAAUAUUACGUACA | -2.59 ± 0.36 | -1.64 ± 0.32 |
| AAUUAGCAAUAUUACGGGCC | – | -1.11 ± 0.49 |

| Sequence | self-splicing fitness (ln) (30 °C) | self-splicing fitness (ln) (37 °C) |
| --- | --- | --- |
| UGUAAGCAAUAUUACGUAUU | -2.86 ± 0.11 | -0.873 ± 0.083 |
| CGCGAGCAAUAUUACGGUCA | -2.23 ± 0.17 | -1.63 ± 0.15 |
| GUGGAGCAAUAUUACGGCUA | -1.06 ± 0.48 | -0.218 ± 0.35 |
| AGGUAGCAAUAUUACGAAGG | -3.908 ± 0.034 | -2.86 ± 0.046 |
| AGAUAGCAAUAUUACGGAGA | -1.91 ± 0.18 | -2.76 ± 0.38 |
| UUUUAGCAAUAUUACGAUUU | -1.67 ± 0.16 | -0.611 ± 0.21 |
| ACAUAGCAAUAUUACGGCGC | -1.1 ± 0.083 | -0.521 ± 0.11 |
| GGAGAGCAAUAUUACGGUUU | -2.6 ± 0.094 | -1.15 ± 0.092 |
| UCUCAGCAAUAUUACGUGGG | -3.43 ± 0.25 | -2.48 ± 0.21 |
| UCCCAGCAAUAUUACGGUAU | -1.24 ± 0.059 | -0.809 ± 0.08 |
| AUCAAGCAAUAUUACGAUGC | -2.01 ± 0.19 | -1.1 ± 0.23 |
| UUGCAGCAAUAUUACGUUAA | -1.55 ± 0.1 | -0.515 ± 0.089 |
| ACUUAGCAAUAUUACGGAGU | -3.58 ± 0.47 | -3.1 ± 0.3 |
| AUGAAGCAAUAUUACGGCCU | 0.063 ± 0.094 | 0.456 ± 0.13 |
| CCCUAGCAAUAUUACGGAGC | -3.31 ± 0.21 | -2.22 ± 0.23 |
| UCCGAGCAAUAUUACGAUCA | – | -1.26 ± 0.25 |
| CGCUAGCAAUAUUACGUUAC | -3.23 ± 0.31 | – |
| GGGAAGCAAUAUUACGUAAU | -1.88 ± 0.14 | -0.632 ± 0.22 |
| CGAAAGCAAUAUUACGUCAG | -1.1 ± 0.08 | 0.335 ± 0.11 |
| CUGAAGCAAUAUUACGUUAG | -0.376 ± 0.063 | 0.25 ± 0.096 |
| CUAAAGCAAUAUUACGUUCC | -3.89 ± 0.4 | -2.25 ± 0.41 |
| UUUGAGCAAUAUUACGUCGU | -3.91 ± 0.34 | -3.09 ± 0.24 |
| AGCGAGCAAUAUUACGGCAA | -1.93 ± 0.13 | -1.71 ± 0.15 |
| AAUGAGCAAUAUUACGCUUU | -3.41 ± 0.23 | -2.34 ± 0.31 |
| ACACAGCAAUAUUACGGCGA | -0.436 ± 0.086 | -0.165 ± 0.09 |
| UUCGAGCAAUAUUACGAUAC | -3.34 ± 0.23 | -3.26 ± 0.26 |

| Sequence | self-splicing fitness (ln) (30 °C) | self-splicing fitness (ln) (37 °C) |
| --- | --- | --- |
| UUUCAGCAAUAUUACGUGCU | -3.47 ± 0.32 | -2 ± 0.24 |
| GACUAGCAAUAUUACGCCAC | – | -1.76 ± 0.41 |
| UACGAGCAAUAUUACGGCGG | -1.79 ± 0.13 | -1.08 ± 0.17 |
| UAAGAGCAAUAUUACGUGGG | -3.82 ± 0.42 | -2.68 ± 0.27 |
| GAUAAGCAAUAUUACGCUGU | -3.45 ± 0.18 | -2.18 ± 0.2 |
| GCCCAGCAAUAUUACGUGAG | -0.944 ± 0.043 | -0.161 ± 0.056 |
| CGUAAGCAAUAUUACGACGC | -1.86 ± 0.3 | -2.02 ± 0.28 |
| CGCGAGCAAUAUUACGGUAA | -2.58 ± 0.23 | -1.58 ± 0.31 |
| CUAAAGCAAUAUUACGUUCA | -3.24 ± 0.12 | -1.56 ± 0.15 |
| UGGGAGCAAUAUUACGUCAC | -1.96 ± 0.36 | – |
| UGCCAGCAAUAUUACGACGU | -1.75 ± 0.14 | -1.26 ± 0.14 |
| AGCGAGCAAUAUUACGGCGA | -0.915 ± 0.22 | -0.377 ± 0.27 |
| UGCAAGCAAUAUUACGUUCU | -0.995 ± 0.069 | -0.423 ± 0.084 |
| CAAUAGCAAUAUUACGCACG | -1.01 ± 0.19 | -1.12 ± 0.17 |
| CCAAAGCAAUAUUACGAAGU | -3.04 ± 0.15 | -2.42 ± 0.2 |
| UAACAGCAAUAUUACGCUGA | -3.33 ± 0.2 | -1.61 ± 0.1 |
| CCUGAGCAAUAUUACGGUUA | -2.13 ± 0.22 | -2.96 ± 0.22 |
| CAUCAGCAAUAUUACGUUAC | -4.12 ± 0.39 | -1.92 ± 0.22 |
| AGUUAGCAAUAUUACGGUAC | -1.49 ± 0.2 | -2.76 ± 0.28 |
| UGAAAGCAAUAUUACGUUGC | -3.54 ± 0.19 | -2.58 ± 0.21 |
| GGAUAGCAAUAUUACGGUUC | -2.54 ± 0.23 | -2.05 ± 0.28 |
| GCCAAGCAAUAUUACGAUGC | -1.7 ± 0.09 | -0.188 ± 0.11 |
| CGACAGCAAUAUUACGAAUC | -4.11 ± 0.46 | -2.71 ± 0.34 |
| ACUUAGCAAUAUUACGCACA | -1.26 ± 0.12 | -1.02 ± 0.12 |
| GGAAAGCAAUAUUACGCACA | -0.416 ± 0.091 | 0.0226 ± 0.14 |
